Measurements from patent US11883434B2, “Extracellular vesicles and methods of using” (NUtech Ventures, priority 2017, dated 2024).
Where two headings read alike, the source gives them in different places.

Tests used:
Assay type in all cases: cell-based
[1] = system: human umbilical vein endothelial cells (HUVEC); test: Uptake of fluorophore-labeled milk exosomes into HUVECs; conditions: exosomal surface proteins removed with proteinase K, HUVEC
[2] = system: human colon carcinoma Caco-2 cells; set-up: exosome uptake: dose or concentration left out as unconfirmed
Experimental: (§1) Caco-2 cells and IEC-6 cells were seeded at a density of 20,000 and 7000 cells/well, respectively, in 96-well plates, and allowed to adhere for 48 h, when cells were 75% confluent. The exosomes were labeled with the fluorophore, FM 4-64 (Molecular Probes). One microliter of a stock solution of FM 4-64 (5.9 mmol/L) was added to 1 mL of exosome suspension and incubated for 15 min at 37° C., and excess FM 4-64 was removed by ultracentrifugation at 120,000 3 g at 4° C. for 90 min. Transport studies were conducted using FM4-64-labeled exosomes using 3-110 mg of exosomal protein/well (Caco-2 cells) or 27-652 mg of exosomal protein/well (IEC-6 cells) and incubating cells for various periods of time to assess saturation kinetics; blanks were created using solvent. Assays were calibrated by quantifying the fluorescence of a known mass of exosomes labeled with FM 4-64. Exosome uptake was analyzed by measuring the cell fluorescence at 515 (excitation) and 640 nm (emission) using a Biotek FLx800 plate reader (BioTek Instru-ments). Fluorescence readings were corrected for cell autofluorescence by subtracting signals measured in cells incubated with exosome-depleted media. Transport kinetics was modeled using the Michaelis-Menten equation and nonlinear regression; modeling was conducted using GraphPad Prism 6.0 (GraphPad Software). In Caco-2 cells, exosome uptake was linear for up to 120 min if transport was measured using nonsaturating substrate concentrations (FIG. 33A): y=0.0012x+0.014 (r2=0.97; P<0.05). In IEC-6 cells exosome uptake was linear for only up to 60 min if transport was measured using nonsaturating substrate concentrations (FIG. 33B): y=0.0033x+0.033 (r2=0.75; P<0.05). Subsequent transport studies were conducted using incubation times of 8 hours for Caco-2 cells (FIG. 34B). Transport of milk exosome uptake was also studied in human umbilical vein endothelial cells (HUVECs) human small intestinal cells (FHs cells).
In both mammalian cells, the uptake of bovine milk exosomes was mediated by saturable transport mechanisms. Transport kinetics was modeled using the Michaelis-Menten equation. Exosome uptake was analyzed by measuring the cell fluorescence at 515 (excitation) and 640 nm (emission) using a Biotek FLx800 plate reader (BioTek Instruments) as previously described above. […] When the incubation temperature was decreased from 37° C. to 4° C., the transport rate decreased from 100%+56% to 54%+13% using a substrate concentration of 55.5 μg exosomal protein/200 μL in Caco-2 cells (P<0.05; n=3). Likewise, when the incubation temperature was decreased from 37° C. to 4° C., the transport rate decreased from 100%+11% to 44%+25% using a substrate concentration of 153 μg exosomal protein/200 μL in IEC-6 cells (P<0.05; n=3). Subsequent transport studies were conducted using substrate concentrations of 55 μg/200 mL and 153 μg/200 mL in Caco-2 cells and IEC-6 cells, respectively. […] (N=3; p<0.05). […] FIGS. 37A and 37B show saturation kinetics of milk exosome uptake in human small intestinal cells (FHs cells).
To remove surface protein from milk exosomes, the exosomes were subjected to various proteases, including trypsin, proteinase K, AspN, GluC, ArgC. […] Following protease treatment, the exosomes were subject to ultracentrifugation. The supernatant containing the enzyme cleaved surface peptides were identified using LC-MS/MS using LC/MS-MS and Mascot, and glycoproteins were identified using SwissProt. One way Anova and Bonferroni's Multiple comparison was used to test for statistical significance. The pellet containing the exosomes with its surface proteins removed was resuspended in 1×PBS and used for the transport studies shown in FIGS. 40-43.
The uptake of bovine milk exosomes into human and rat intestinal cells depended on surface proteins in both exosomes and cells. Exosomes were treated with proteases as described above and depicted in FIG. 39. […]

[3] = system: human small intestinal cells (FHs cells); test: Uptake of milk exosomes into FH cells (protease, glycosidase, lectin, sonication)
[4] = system: rat primary small intestinal IEC-6 cells; test: Uptake of FM4-64-labeled milk exosomes into IEC-6 cells; conditions: exosomes treated with 0.105 mMol/L trypsin for 30 mins
Experimental: as §1, with “Transport studies were conducted using FM4-64-labeled exosomes using 3-110 mg of exosomal protein/well (Caco-2 cells) or 27-652 mg of exosomal protein/well (IEC-6 cells) and incubating cells for various periods of time to assess saturation kinetics; blanks were created using solvent.” left out, “Transport kinetics was modeled using the Michaelis-Menten equation and nonlinear regression; modeling was conducted using GraphPad Prism 6.0 (GraphPad Software).” left out, “Subsequent transport studies were conducted using incubation times of 8 hours for Caco-2 cells (FIG. 34B). Transport of milk exosome uptake was also studied in human umbilical vein endothelial cells (HUVECs) human small intestinal cells (FHs cells).” left out

B1: proteinase K: Non-specific protease used to remove surface proteins from exosomes or cells (protein, UniProt P06873 106-384, looked up)
Proteinase K: AAQTNAPWGLARISSTSPGTSTYYYDESAGQGSCVYVIDTGIEASHPEFEGRAQMVKTYYYSSRDGNGHGTHCAGTVGSRTYGVAKKTQLFGVKVLDDNGSGQYSTIIAGMDFVASDKNNRNCPKGVVASLSLGGGYSSSVNSAAARLQSSGVMVAVAAGNNNADARNYSPASEPSVCTVGASDRYDRRSSFSNYGSVLDIFGPGTSILSTWIGGSTRSISGTSMATPHVAGLAAYLMTLGKTTAASACRYIADTANKGDLSNIPFGTVNLLAYNNYQA
With B1 the exosome uptake [1] was 50 % of controls, the exosome uptake ([2]; CaCo2 cells treated with proteinase K) was 18%±16% and the exosome uptake ([2]; exosomes treated with proteinase K) was 32%±25%. For the same molecule, the “decrease of exosome uptake compared with controls” value ([2]; removal of exosome and cell surface proteins, inhibition of endocytosis/vesicle trafficking, or of glycoprotein binding) was 61-85%.

B2: Arg-C: Cysteine protease cleaving at arginine and lysine (protein, UniProt P09870 51-181; P09870 191-526, looked up)
Clostripain light chain: NKNQKVTIMYYCDADNNLEGSLLNDIEEMKTGYKDSPNLNLIALVDRSPRYSSDEKVLGEDFSDTRLYKIEHNKANRLDGKNEFPEISTTSKYEANMGDPEVLKKFIDYCKSNYEADKYVLIMANHGGGAR
Clostripain heavy chain: AICWDDSNLDKNGEADCLYMGEISDHLTEKQSVDLLAFDACLMGTAEVAYQYRPGNGGFSADTLVASSPVVWGPGFKYDKIFDRIKAGGGTNNEDDLTLGGKEQNFDPATITNEQLGALFVEEQRDSTHANGRYDQHLSFYDLKKAESVKRAIDNLAVNLSNENKKSEIEKLRGSGIHTDLMHYFDEYSEGEWVEYPYFDVYDLCEKINKSENFSSKTKDLASNAMNKLNEMIVYSFGDPSNNFKEGKNGLSIFLPNGDKKYSTYYTSTKIPHWTMQSWYNSIDTVKYGLNPYGKLSWCKDGQDPEINKVGNWFELLDSWFDKTNDVTGGVNHYQW
With B2 the “effect on exosome uptake in Caco-2 cells” value [2] was “significant decrease in exosome transport”.

B3: PNA: Lectin binding Galβ1-3GalNAcα1-Ser/Thr (protein, UniProt P02872 24-273, looked up)
Galactose-binding lectin: AETVSFNFNSFSEGNPAINFQGDVTVLSNGNIQLTNLNKVNSVGRVLYAMPVRIWSSATGNVASFLTSFSFEMKDIKDYDPADGIIFFIAPEDTQIPAGSIGGGTLGVSDTKGAGHFVGVEFDTYSNSEYNDPPTDHVGIDVNSVDSVKTVPWNSVSGAVVKVTVIYDSSTKTLSVAVTNDNGDITTIAQVVDLKAKLPERVKFGFSASGSLGGRQIHLIRSWSFTSTLITTTRRSIDNNEKKIMNMASA
For B3, the “effect on exosome uptake in FH cells” value ([3]; FH cells treated with the labelled agent) was “decreases the uptake” and the “effect on exosome uptake in FH cells” value ([3]; exosomes treated with the labelled agent) was “decreases the uptake”.

B4: trypsin: Serine protease cleaving at lysine or arginine; applied to exosomes or cells (protein, UniProt P00761 9-231, looked up)
Trypsin: IVGGYTCAANSIPYQVSLNSGSHFCGGSLINSQWVVSAAHCYKSRIQVRLGEHNIDVLEGNEQFINAAKIITHPNFNGNTLDNDIMLIKLSSPATLNSRVATVSLPRSCAAAGTECLISGWGNTKSSGSSYPSLLQCLKAPVLSDSSCKSSYPGQITGNMICVGFLEGGKDSCQGDSGGPVVCNGQLQGIVSWGYGCAQKNKPGVYTKVCNYVNWIQQTIAAN
B4 was tested, and the “effect on exosome uptake in Caco-2 cells” value [2] was “significant decrease in exosome transport”, the “transport rates (Vmax)” value ([2]; exosomes treated with the labelled protease, intestinal transport) was 40±0.6 arbitrary units and the exosome uptake [4] was 82%±8%.
